# Data taken from patent US20040086495.
# T1: phospho-BAD (recombinant BAD as GST-fusion protein, phosphorylated in vitro with PKA and [gamma-32P]ATP), Q61337
# T1 chain: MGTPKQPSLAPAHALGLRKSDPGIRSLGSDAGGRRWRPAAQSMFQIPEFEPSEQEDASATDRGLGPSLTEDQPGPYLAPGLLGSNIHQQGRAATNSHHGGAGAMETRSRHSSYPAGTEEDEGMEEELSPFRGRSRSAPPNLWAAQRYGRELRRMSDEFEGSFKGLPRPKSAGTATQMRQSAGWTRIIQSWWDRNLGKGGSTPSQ
# B1: PP2Cβ from bovine brain (protein phosphatase type 2C beta), recombinant, expressed in E. coli (protein)
# chain: MGAFLDKPKTEKHNAHGAGNGLRYGLSSMQGWRVEMEDAHTAVVGIPHGLEDWSFFAVYDGHAGSRVANYCSTHLLEHITNNEDFRAAGKSGSALEPSVENVKNGIRTGFLKIDEYMRNFSDLRNGMDRSGSTAVGVMISPKHIYFINCGDSRAVLYRSGQVCFSTQDHKPCNPREKERIQNAGGSVMIQRVNGSLAVSRALGDYDYKCVDGKGPTEQLVSPEPEVYEILRAEEDEFIILACDGIWDVMSNEELCEFVKSRLEVSDDLENVCNWVVDTCLHKGSRDNMSIVLVCFSNAPKVSDEAMRKDSELDKYLESRVEEIMEKSGEEGMPDLAHVMRILSAENIPNLPPGGGLAGKRHVIEAVYSRLNPHRESDGGAGDLEDPW
# Molecular target: T1, phospho-BAD (recombinant BAD as …)
protein,measurement,value
B1,"dephosphorylation of [32P]BAD by PP2C in vitro (SDS-PAGE, autoradiography)",The dephosphorylation of phospho-BAD by PP2C is dependent as well on time and concentration.
same,dephosphorylation of phospho-BAD sites by PP2C,"Here it could be shown, that PP2C preferably dephosphorylates P-ser^155 compared to P-ser^112 and P-ser^136."
